Measurements from the RNAGym collection of RNA variant scans (doi:10.7554/elife.80360).

B1: Twister Ribozyme (parent)
chain: AACACUGCCAAUGCCGGUCCCAAGCCCGGAUAAAAGUGGAGGGGGCGG

Variants of: B1
Assay: self-cleavage, relative activity (ratio to wild type); higher = more cleavage; co-transcriptional

Row | Variant | self-cleavage
1 | A10G C19A | 0.472
2 | A10G G47C | 0.809
3 | A10G G47A | 0.821
4 | A10G G16U | 1.14
5 | A10G G16C | 0.567
6 | U12A G16A | 1.03
7 | U12A G16U | 1.09
8 | A11U C20G | 0.17
9 | A11U C20U | 1.08
10 | A10G A23C | 0.714
11 | A10G A23G | 0.879
12 | A10U G36U | 0.716
13 | A10U G36A | 0.804
14 | A10G G29U | 1.12
15 | A10G G29C | 1.01
16 | A11U U31C | 1.04
17 | U12A G24A | 0.103
18 | A11U G38U | 0.875
19 | A11U G38A | 1.16
20 | A10C G48C | 1.03
21 | A10C G44U | 0.859
22 | U12A C27G | 0.138
23 | A10G C27U | 1.01
24 | A11G G44A | 0.778

Row | Variant | self-cleavage
25 | A11G G44U | 0.876
26 | A11U G28C | 0.801
27 | A10U G13A | 0.913
28 | A10U G13C | 0.211
29 | A11G G42A | 0.441
30 | A11G G42C | 0.455
31 | A11G G42U | 0.411
32 | A11G G47U | 0.861
33 | A11G G47C | 0.528
34 | U12A G28A | 0.912
35 | A11U G43U | 0.606
36 | A11U G43A | 0.336
37 | A10U G48A | 0.959
38 | A11C G43A | 0.167
39 | A11C G41C | 0.255
40 | A11C G41U | 0.42
41 | A10G U12C | 0.847
42 | A10U G39C | 0.0863
43 | A11U C25G | 0.501
44 | A11G C26A | 0.187
45 | A10G A22C | 0.818
46 | A10G A22U | 0.971
47 | A10G A22G | 0.268
48 | A10C G45U | 0.842

Row | Variant | self-cleavage
49 | A11U G29A | 1.02
50 | A10C G28C | 0.822
51 | A10C G28A | 0.841
52 | A11G U18G | 0.0264
53 | U12A A34U | 0.984
54 | U12A A34G | 1.02
55 | A10C G39U | 0.148
56 | A10C U18C | 0.787
57 | A11U C26A | 0.674
58 | A11U C26G | 0.31
59 | A10C C27G | 0.0988
60 | A10C C27A | 0.673
61 | A11U G41U | 0.889
62 | A11C A32G | 0.788
63 | A11G A30U | 0.976
64 | A11G A30G | 0.674
65 | A10U C19U | 0.92
66 | A11G G48U | 0.942
67 | A11G C27A | 0.449
68 | A11G C27U | 0.405
69 | A10G A34U | 0.959
70 | A10G A34C | 0.498
71 | A11C G42U | 0.136
72 | A11C G42A | 0.248

Row | Variant | self-cleavage
73 | U12A C21A | 0.152
74 | A11G A40U | 0.126
75 | A11G A40C | 0.214
76 | A11C A30G | 0.739
77 | A11C A30C | 0.719
78 | U12A A30U | 1.15
79 | U12A A30C | 0.893
80 | A11U A23G | 0.755
81 | A11U A30G | 1.11
82 | A11U A30U | 1.01
83 | A10G A30U | 0.984
84 | A10G A30C | 0.981
85 | A10G C25G | 0.409
86 | A11G G29C | 0.679
87 | A11C A34G | 0.713
88 | A10G C21A | 0.137
89 | A10G C21G | 0.0634
90 | A11U C15U | 1
91 | A10U C27G | 0.057
92 | A10U C27U | 0.93
93 | A11U U12G | 1.05
94 | A11C C14U | 0.909
95 | A11C C14A | 0.69
96 | A10G G43C | 0.262

Row | Variant | self-cleavage
97 | A10G G43A | 0.363
98 | A11G C19G | 0.538
99 | A11G C19U | 0.792
100 | U12A C25U | 0.947
101 | U12A C25A | 0.15
102 | A10G A32G | 1.15
103 | A10G A32U | 1.01
104 | A11G U37A | 0.587
105 | A11U C14U | 1.13
106 | A11U C14A | 0.915
107 | A11U C21U | 0.0941
108 | U12A A22U | 1.02
109 | U12A A22G | 0.396
110 | A10G A33G | 1.04
111 | A10G U18G | 0.0537
112 | A10G U18A | 0.841
113 | A11G A34G | 0.819
114 | A11C A23C | 0.0766
115 | A10U A23G | 0.461
116 | A10U A23C | 0.182
117 | A11C G28C | 0.431
118 | A10C G42C | 0.345
119 | A10C G42A | 0.31
120 | U12A C15U | 1.1

Row | Variant | self-cleavage
121 | A11C C15A | 0.24
122 | A10U G38U | 0.863
123 | U12A C46A | 1.09
124 | U12A C46G | 1.12
125 | A10U G17C | 0.11
126 | A10U G17A | 0.532
127 | A11U A40G | 0.0881
128 | A10C G38A | 0.947
129 | A10G C14U | 1.02
130 | A10G C14G | 0.0768
131 | A10U C14U | 0.884
132 | A11U A33U | 1.03
133 | A11C C19U | 0.627
134 | U12A C19G | 0.614
135 | U12A C19U | 0.882
136 | A11C A22G | 0.168
137 | A11C A22C | 0.929
138 | A11C U31A | 0.502
139 | A11C U31G | 0.917
140 | A10U G16U | 0.802
141 | A10U G16C | 0.419
142 | A11U A34C | 0.365
143 | A11U C46A | 0.93
144 | A10G U37G | 0.89

Row | Variant | self-cleavage
145 | A10G U37A | 0.805
146 | A10G U37C | 0.946
147 | A11C C46G | 0.917
148 | A11C C46A | 0.908
149 | A11C C46U | 0.736
150 | A10C C46G | 0.714
151 | A11G A33U | 0.955
152 | A10G C20U | 0.878
153 | A10G C20A | 0.136
154 | A10G C20G | 0.183
155 | A10U G24U | 0.119
156 | A11C C25G | 0.115
157 | A11C C25U | 0.733
158 | A11C C25A | 0.0918
159 | U12A | 1.11
160 | A11C C20G | 0.131
161 | A11C C20U | 0.91
162 | A11U U18C | 0.617
163 | A11U U18A | 1
164 | A11G G45U | 0.567
165 | A11G G45A | 0.811
166 | A10U C46U | 0.836
167 | U12A C20U | 1.15
